The numbers were not newly measured in PMC7687155, which cites them from elsewhere.

This data set has as its target Sep15 (Homo sapiens) (UniProt O60613).

Sep15 (Homo sapiens), sequence (O60613 32-165): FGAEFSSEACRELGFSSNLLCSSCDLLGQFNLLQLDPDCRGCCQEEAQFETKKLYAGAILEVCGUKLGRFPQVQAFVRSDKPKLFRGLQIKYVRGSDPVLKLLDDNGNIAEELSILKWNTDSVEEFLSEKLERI
UGGT1, sequence (Q9NYU2 43-1555): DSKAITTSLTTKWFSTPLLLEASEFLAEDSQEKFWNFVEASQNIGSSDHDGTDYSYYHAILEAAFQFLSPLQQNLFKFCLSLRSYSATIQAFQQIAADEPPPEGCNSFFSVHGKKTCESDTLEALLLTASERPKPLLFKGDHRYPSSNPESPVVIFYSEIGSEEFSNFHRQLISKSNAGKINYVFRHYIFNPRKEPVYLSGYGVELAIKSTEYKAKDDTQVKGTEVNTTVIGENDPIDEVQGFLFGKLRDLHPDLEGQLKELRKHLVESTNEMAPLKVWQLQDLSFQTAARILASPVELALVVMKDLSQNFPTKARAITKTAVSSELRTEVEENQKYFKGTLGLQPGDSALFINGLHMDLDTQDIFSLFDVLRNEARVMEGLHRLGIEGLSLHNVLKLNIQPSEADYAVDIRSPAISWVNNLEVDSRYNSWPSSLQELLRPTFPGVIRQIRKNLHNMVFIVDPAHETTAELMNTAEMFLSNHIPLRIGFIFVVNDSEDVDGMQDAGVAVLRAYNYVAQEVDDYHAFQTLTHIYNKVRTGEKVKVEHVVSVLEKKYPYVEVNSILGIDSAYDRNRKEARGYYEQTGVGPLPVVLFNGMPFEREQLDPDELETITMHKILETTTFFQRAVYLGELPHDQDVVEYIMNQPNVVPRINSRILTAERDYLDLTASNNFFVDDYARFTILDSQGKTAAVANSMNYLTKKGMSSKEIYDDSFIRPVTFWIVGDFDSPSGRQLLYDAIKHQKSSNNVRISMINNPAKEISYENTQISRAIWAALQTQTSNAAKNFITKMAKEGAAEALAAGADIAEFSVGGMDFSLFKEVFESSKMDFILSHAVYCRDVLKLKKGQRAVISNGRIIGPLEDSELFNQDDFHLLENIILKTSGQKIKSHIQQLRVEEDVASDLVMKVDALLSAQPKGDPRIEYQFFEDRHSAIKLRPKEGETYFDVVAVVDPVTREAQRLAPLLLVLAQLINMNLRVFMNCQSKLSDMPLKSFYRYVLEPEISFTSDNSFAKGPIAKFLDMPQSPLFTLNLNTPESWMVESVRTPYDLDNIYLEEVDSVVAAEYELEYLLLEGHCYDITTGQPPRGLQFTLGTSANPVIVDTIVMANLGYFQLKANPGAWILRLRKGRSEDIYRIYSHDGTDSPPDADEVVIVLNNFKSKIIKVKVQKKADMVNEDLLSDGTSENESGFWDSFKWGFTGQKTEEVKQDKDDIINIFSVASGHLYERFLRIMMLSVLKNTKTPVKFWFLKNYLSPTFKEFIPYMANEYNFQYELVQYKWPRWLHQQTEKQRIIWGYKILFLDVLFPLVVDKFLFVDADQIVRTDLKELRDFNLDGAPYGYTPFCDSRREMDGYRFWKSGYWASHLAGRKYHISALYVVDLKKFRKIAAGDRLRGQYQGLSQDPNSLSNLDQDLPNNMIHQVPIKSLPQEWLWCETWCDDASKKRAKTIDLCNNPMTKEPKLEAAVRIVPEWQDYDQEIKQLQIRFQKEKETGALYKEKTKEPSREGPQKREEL

Consider UGGT1 (from UniProt Q9NYU2), for which the equilibrium dissociation constant (Kd) was 20 nM.
